Data on nine molecules can be found in US20220340684A1 (AGENCY FOR SCIENCE TECHNOLOGY AND RESEARCH, published 2022).

To fix the notation:
B9: Recombinant human TRIM21 PRYSPRY domain (His-tagged, expressed in E. coli BL21 (DE3)) (receptor)
chain: VHITLDPDTANPWLILSEDRRQVRLGDTQQSIPGNEERFDSYPMVLGAQHFHSGKHYWEVDVTGKEAWDLGVCRDSVRRKGHFLLSSKSGFWTIWLWNKQKYEAGTYPQTPLHLQVPPCQVGIFLDYEAGMVSFYNITDHGSLIYSFSECAFTGPLRPFFSPGFNDGGKNTAPLTLCPLNIGSQGSTDY
modifications: biotinylated when used as bait for biopanning and in the ELISAs (sites not given)
notes: Purified on Ni-NTA and by gel filtration; Analyte in SPR; biotinylated form used in biopanning and ELISA; also called PRYSPRY domain of TRIM21; bait protein; not shown: N-terminal His-tag of the pQE-2 vector

Test [1] addresses B9. Description: SPR as in Example 1.10, TRIM21 PRYSPRY domain.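 Also: antibodies amine-coupled to a GLC chip on a ProteON XPR36, TRIM21 flowed at five concentrations in PBS with 0.05% Tween-20, kinetics fitted to a Langmuir 1:1 model.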
Test [2] deals with B9. Description: ELISA, 0.125 µg/ml biotinylated PRYSPRY domain. (In general: An ELISA detects its analyte on a solid surface through an enzyme-linked reagent.)
In test [3] the target is T1, Wildtype IgG1 Fc (reference in the SPR table of Example 4) (human, UniProt P0DOX5 230-449 = IgG part, limits assumed).
T1 construct: also called wildtype Fc
In words: SPR as in Example 1.10, TRIM21 PRYSPRY domain.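 Also: antibodies amine-coupled to a GLC chip on a ProteON XPR36, TRIM21 flowed at five concentrations in PBS with 0.05% Tween-20, kinetics fitted to a Langmuir 1:1 model.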

As usually defined, the Kd is a measure of binding affinity in units of concentration. In general, koff refers to the rate constant with which the complex falls apart. Broadly, the kon is a measure of how fast the partners come together.

B1: Fc region SN 1 of FIG. 13 (IgG1 256P/433S/434H/440G) (other)
chain: PCPAPELLGGPSVFLFPPKPKDTLMISRPPEVTCVVVDVSHEDPEVKFNWYVDGVEVHNAKTKPREEQYNSTYRVVSVLTVLHQDWLNGKEYKCKVSNKALPAPIEKTISKAKGQPREPQVYTLPPSRDELTKNQVSLTCLVKGFYPSDIAVEWESNGQPENNYKTTPPVLDSDGSFFLYSKLTVDKSRWQQGNVFSCSVMHEALSHHYTQKGLSLSPGK
As to B1, in test [1], the Kd amounted to 0.055 nM, the koff turned out to be 0.000388 s⁻¹ and the on-rate (kon) worked out at 7.05e+06 M⁻¹ s⁻¹.

B2: Fc region SN 92 of FIG. 13 (IgG1 256A/436F/440M) (other)
chain: PCPAPELLGGPSVFLFPPKPKDTLMISRAPEVTCVVVDVSHEDPEVKFNWYVDGVEVHNAKTKPREEQYNSTYRVVSVLTVLHQDWLNGKEYKCKVSNKALPAPIEKTISKAKGQPREPQVYTLPPSRDELTKNQVSLTCLVKGFYPSDIAVEWESNGQPENNYKTTPPVLDSDGSFFLYSKLTVDKSRWQQGNVFSCSVMHEALHNHFTQKMLSLSPGK
Consider B2, for which, in test [1], the dissociation constant Kd stood at 3.68 nM, the koff is 0.0145 s⁻¹ and the association rate constant (kon) worked out at 3.94e+06 M⁻¹ s⁻¹.

B3: Fc region SN 32 of FIG. 13 (IgG1 256P/433T/434R) (other)
chain: PCPAPELLGGPSVFLFPPKPKDTLMISRPPEVTCVVVDVSHEDPEVKFNWYVDGVEVHNAKTKPREEQYNSTYRVVSVLTVLHQDWLNGKEYKCKVSNKALPAPIEKTISKAKGQPREPQVYTLPPSRDELTKNQVSLTCLVKGFYPSDIAVEWESNGQPENNYKTTPPVLDSDGSFFLYSKLTVDKSRWQQGNVFSCSVMHEALTRHYTQKSLSLSPGK
In the case of B3, in test [1], the Kd stood at 0.498 nM, the dissociation rate constant (koff) is 0.00053 s⁻¹ and the kon was determined as 1.06e+06 M⁻¹ s⁻¹.

B4: modified Fc (other)
Fc polypeptide (CH2-CH3): PCPAPELLGGPSVFLFPPKPKDTLMISRPPEVTCVVVDVSHEDPEVKFNWYVDGVEVHNAKTKPREEQYNSTYRVVSVLTVLHQDWLNGKEYKCKVSNKALPAPIEKTISKAKGQPREPQVYTLPPSRDELTKNQVSLTCLVKGFYPSDIAVEWESNGQPENNYKTTPPVLDSDGSFFLYSKLTVDKSRWQQGNVFSCSVMHEALTRHFTQKILSLSPGK
notes: also called PN04-90 Fc
Take B4: the binding result in test [2] is listed as “binds”.

B5: Fc region SN 10 of FIG. 13 (IgG1 256P/433V/434H/440R) (other)
chain: PCPAPELLGGPSVFLFPPKPKDTLMISRPPEVTCVVVDVSHEDPEVKFNWYVDGVEVHNAKTKPREEQYNSTYRVVSVLTVLHQDWLNGKEYKCKVSNKALPAPIEKTISKAKGQPREPQVYTLPPSRDELTKNQVSLTCLVKGFYPSDIAVEWESNGQPENNYKTTPPVLDSDGSFFLYSKLTVDKSRWQQGNVFSCSVMHEALVHHYTQKRLSLSPGK
As to B5, in test [1], the dissociation constant (Kd) was 0.892 nM, the koff worked out at 0.00046 s⁻¹ and the on-rate constant (kon) amounted to 515000 M⁻¹ s⁻¹.

B6: Fc region SN 9 of FIG. 13 (IgG1 256P/433V/434H) (other)
chain: PCPAPELLGGPSVFLFPPKPKDTLMISRPPEVTCVVVDVSHEDPEVKFNWYVDGVEVHNAKTKPREEQYNSTYRVVSVLTVLHQDWLNGKEYKCKVSNKALPAPIEKTISKAKGQPREPQVYTLPPSRDELTKNQVSLTCLVKGFYPSDIAVEWESNGQPENNYKTTPPVLDSDGSFFLYSKLTVDKSRWQQGNVFSCSVMHEALVHHYTQKSLSLSPGK
With B6, in test [1], the dissociation constant Kd stood at 0.0957 nM, the koff is 0.000481 s⁻¹ and the kon was determined as 5.03e+06 M⁻¹ s⁻¹.

B7: Fc region SN 2 of FIG. 13 (IgG1 256P/433S/434H) (other)
chain: PCPAPELLGGPSVFLFPPKPKDTLMISRPPEVTCVVVDVSHEDPEVKFNWYVDGVEVHNAKTKPREEQYNSTYRVVSVLTVLHQDWLNGKEYKCKVSNKALPAPIEKTISKAKGQPREPQVYTLPPSRDELTKNQVSLTCLVKGFYPSDIAVEWESNGQPENNYKTTPPVLDSDGSFFLYSKLTVDKSRWQQGNVFSCSVMHEALSHHYTQKSLSLSPGK
Regarding B7, in test [1], the Kd is 0.156 nM, the koff was found to be 0.000727 s⁻¹ and the kon is 4.66e+06 M⁻¹ s⁻¹.

B8: Fc region SN 46 of FIG. 13 (IgG1 256P/433V/434R) (other)
chain: PCPAPELLGGPSVFLFPPKPKDTLMISRPPEVTCVVVDVSHEDPEVKFNWYVDGVEVHNAKTKPREEQYNSTYRVVSVLTVLHQDWLNGKEYKCKVSNKALPAPIEKTISKAKGQPREPQVYTLPPSRDELTKNQVSLTCLVKGFYPSDIAVEWESNGQPENNYKTTPPVLDSDGSFFLYSKLTVDKSRWQQGNVFSCSVMHEALVRHYTQKSLSLSPGK
B8: in test [1], the dissociation constant Kd was determined as 0.169 nM, the off-rate constant (koff) was 0.000124 s⁻¹ and the kon stood at 730000 M⁻¹ s⁻¹.
On to B9, for which, in test [3], the dissociation constant Kd amounted to 126 nM, the koff came to 0.0812 s⁻¹ and the kon was determined as 647000 M⁻¹ s⁻¹.
